The target of test [1] is T1, Fc tagged human PDL1 (human, UniProt Q9NZQ7 19-239).
T1 construct: Bought (Sino Biological, cat. 10084-H02H); captured on the SPR chip; also called PDL1-Fc chimeric protein
Nature of the test: SPR. In short, it runs like this:
(§1)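 Kinetics were fitted with a one-to-one Langmuir model to give apparent ka, kd and KD. Binders at 0.12-90 nM (three-fold series) flowed 3 min, with 10 min dissociation and 3 M MgCl₂ regeneration, on a Biacore T200.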
A general note: Surface plasmon resonance follows binding to a sensor surface in real time, without labels.

In test [2] the target is cynomolgus CD137-Fc chimeric protein (cynomolgus monkey, UniProt A9YYE7 24-186). The experiment in a line: SPR. In short, it runs like this: as §1
Test [3] addresses T2, mouse CD137-Fc chimeric protein (mouse, UniProt P20334 24-187, limits assumed).
T2 sequence (looked up): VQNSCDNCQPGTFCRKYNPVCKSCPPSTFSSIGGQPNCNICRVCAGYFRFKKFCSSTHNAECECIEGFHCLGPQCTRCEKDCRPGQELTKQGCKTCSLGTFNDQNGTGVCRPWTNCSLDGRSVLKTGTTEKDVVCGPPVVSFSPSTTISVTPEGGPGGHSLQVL
The experiment in a line: SPR. In short, it runs like this: as §1

Test [4] deals with T3, Fc tagged human CD137 (human, UniProt Q07011 24-186).
T3 construct: also called CD137-Fc chimeric protein
The experiment in a line: SPR. In short, it runs like this: as §1

In test [5] the target is human PDL1 on cells (human, UniProt Q9NZQ7 19-290). The experiment in a line: cell-based or functional assay.
Test [6] deals with T4, CD137 on Jurkat NFkB reporter cells (human, UniProt Q07011 24-255). Nature of the test: cell-based or functional assay.
In test [7] the target is T4, CD137 on Jurkat NFkB reporter cells. The experiment in a line: cell-based or functional assay. This is another data set of the same source.
The target is the same in test [8]. The experiment in a line: cell-based or functional assay. The source holds these as a separate data set.
Test [9] shares this target. The experiment in a line: cell-based or functional assay. The source holds these as a separate data set.
Test [10] has as its target T5, biotinylated human PDL1 (human, UniProt Q9NZQ7 19-238, limits assumed, biotinylated).
T5 construct: also called biotinylated PDL1
Nature of the test: competition ELISA B7.1/PDL1. In short, it runs like this:
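IC₅₀ was derived by four-parameter logistic fitting of reference-subtracted A450/690 readings. The signal came from streptavidin-polyHRP40 (10 ng/ml) with a 6-minute TMB reaction detecting biotinylated PDL1 bound to the plate. Pre-mixed samples sat 1 h at RT before a 1.5 h plate incubation.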
For orientation: ELISA stands for enzyme-linked immunosorbent assay.

The target of test [11] is T5, biotinylated human PDL1. The experiment in a line: competition ELISA PD-1/PDL1.
The target in test [12] is T6, human serum albumin (human, UniProt P02768 25-609).
T6 construct: Coupled directly to the CM5 chip; also called HSA; human SA
The experiment in a line: SPR, SA coupled to chip, pH 5.5. On the procedure: (§2) Affinity of molecules to serum albumin (SA) of the different species was determined by SPR measurements using a Biacore T200 device (GE Healthcare). SA was directly coupled to a CM5 sensor chip (GE Healthcare) using amine coupling chemistry. […] The assay was run in a 1× PBS-Tween buffer at pH 5.5.

Test [13] has as its target T7, mouse serum albumin (mouse, UniProt P07724 25-608).
T7 construct: Coupled directly to the CM5 chip; also called MSA; mouse SA
Nature of the test: SPR, SA coupled to chip, pH 5.5. The method, then: as §2

In test [14] the target is T5, biotinylated human PDL1. Nature of the test: competition ELISA PD-1/PDL1 with HSA. On the procedure: (§3) Plates were blocked for 1 hour at room temperature by adding 300 μl of PBS with i%BSA and 0.2% tween (dilution buffer) to each well. Inhibitors were serially diluted in 3-fold steps to final concentrations ranging from 300 to 0.005 ng/ml in dilution buffer containing 1 ng/ml biotinylated human PDL1. The mixtures were pre-incubated for 1 hour at room temperature under gentle agitation on a rotating mixer (21 rpm) and added to the microplates after 3 wash cycles with 450 μl wash buffer per well. Plates were incubated for 1.5 hours at room temperature under gentle agitation, then 10 ng/ml streptavidin-polyHRP40 was added to each microplate well after three washes with 450 μl of wash buffer per well. After 1 h incubation at RT, plates were washed three times with 450 μl wash buffer and TMB substrate solution was added. The enzymatic reaction was stopped after 6 minutes by addition of 1 M HCl and absorbance was measured at 450 nm using 690 nm as a reference wavelength. For calculation of IC₅₀ values, a four-parameter logistic (4PL) curve fit was performed in Graph Pad Prism using reference subtracted values.

The target in test [15] is T5, biotinylated human PDL1. The experiment in a line: PD-1/PDL1 competition ELISA with 1 mg/ml HSA: coated human PD-1, biotinylated human PDL1; blocked ligand: human PD-1. On the procedure: as §3
The target of test [16] is T7, mouse serum albumin. The experiment in a line: SPR, SA coupled to chip. On the procedure:
as §2

B1: PRO1057 (other)
chain: DIQMTQSPSSLSASVGDRVTITCQASQSINDYLAWYQQKPGKAPKLLIYKASTLASGVPSRFSGSGSGTDFTLTISSLQPEDFATYYCQQGYIITDIDNVFGTGTKVTVLGGGGGSQVQLQESGPGLVKPSETLSLTCKVSGFSFSNSYWICWIRQPPGKGLEWIGCTFVGSSDSTYYANWAKGRVTISVDSSKNQFSLKLSSVTAADTAVYYCARHPSDAVYGYANNLWGQGTLVTVSSGGGGSGGGGSGGGGSGGGGSIQMTQSPSSLSASVGDRVTITCQASQSINNVLAWYQQKPGKAPKLLIYRASTLASGVPSRFSGSGSGTDFTLTISSLQPEDFATYYCQSSYGNYGDFGTGTKVTVLGGGGGSQVQLQESGPGLVKPSETLSLTCKVSGFSFSSGYDMCWIRQPPGKGLEWIGCVVAGSVDITYYASWAKGRVTISVDSSKNQFSLKLSSVTAADTAVYYCARKDAYSDAFNLWGQGTLVTVSSGGGGSGGGGSVVMTQSPSSLSASVGDRVTITCQASQIISSRSAWYQQKPGQPPKLLIYQASKLASGVPSRFSGSGSGTDFTLTISSLQPEDFATYYCQCTYIDSNFGAFGGGTKLTVLGGGGGSGGGGSGGGGSGGGGSEVQLVESGGGLVQPGGSLRLSCAASGFSFSSSYWICWVRQAPGKGLEWVGCVFTGDGTTYYASWAKGRFTISRDNSKNTVYLQMNSLRAEDTATYFCARPVSVYYYGMDLWGQGTLVTVSS
notes: trispecific scDb-scFv; also called 38-02-A04 sc01 scDb-i/33-03-G02 sc01 scDb-o/23-12-A01-sc03, sk17sh4
As for B1, in test [1], binding was put at a Kd of 0.11 nM and the koff (as a rule, the rate constant with which the complex falls apart) came to 0.00017 s⁻¹. Besides, in [2], the Kd – broadly, the equilibrium constant for the complex coming apart – was determined as 4.8 nM. Moreover, in test [3], the Kd was found to be 1200 nM. In addition, in test [4], the Kd was 5.15 nM; the koff worked out at 0.0007 s⁻¹; the association rate constant (kon) (as a rule, the second-order rate constant of association) came to 240000 M⁻¹ s⁻¹. Also, in test [5], the “IC50 (ng/ml), NF-AT potency assay, +HSA” value came out at 665 ng/mL and the “rel. IC50 (avelumab/test), +HSA” value stood at 0.1 fold. For the same molecule, the “EC50, NFkB reporter, CHO-PDL1, 6 h, +HSA” value in [6] was 0.112 µg/mL. Besides, the “EC50, NFkB reporter, CHO-PDL1, 24 h, +HSA” value in test [7] amounted to 0.792 µg/mL. For the same molecule, in test [8], the “EC50, NFkB reporter, HCC827 with IFNg, 24 h, +HSA” value was found to be 0.115 µg/mL and the “EC50, NFkB reporter, HCC827 without IFNg, 24 h, +HSA” value came out at 0.0766 µg/mL. In test [9], the “IC50 (ng/ml), NFkB reporter, CHO-PD-L1, 24 h, +HSA” value is 792 ng/mL; the “IC50 (ng/ml), NFkB reporter, HCC827 + IFNg, 24 h, +HSA” value came to 115 ng/mL; the “IC50 (ng/ml), NFkB reporter, HCC827 - IFNg, 24 h, +HSA” value was found to be 76.6 ng/mL; the “max. activation (%), NFkB reporter, CHO-PD-L1, 24 h, +HSA” value is 663%. For the same molecule, in [9], the “rel. IC50 (urelumab/test), NFkB reporter, CHO-PD-L1, 24 h, +HSA” value was found to be 0.1 fold; the “rel. IC50 (urelumab/test), NFkB reporter, HCC827 + IFNg, 24 h, +HSA” value was 0.46 fold; the “rel. IC50 (urelumab/test), NFkB reporter, HCC827 - IFNg, 24 h, +HSA” value came to 0.62 fold. Also, in test [10], the IC50 (usually the concentration that inhibits the measured activity by half) came out at 0.0163 µg/mL and the “rel. IC50 (IC50 avelumab/IC50 test)” value was 0.53 fold. For the same molecule, in test [11], the IC50 was found to be 0.00861 µg/mL and the “rel. IC50 (IC50 avelumab/IC50 test)” value is 0.2 fold. In test [12], this molecule returned a koff of 0.00067 s⁻¹ and a kon of 240000 M⁻¹ s⁻¹. In [13], this molecule came in with a kon of 130000 M⁻¹ s⁻¹. Further, in test [14], the “fold change of IC50 in presence of human serum albumin” value was about 2 fold. In test [15], the “IC50 (read off the curve)” value is about 0.02 µg/mL.

B2: PRO963 (other)
chain: DIQMTQSPSSLSASVGDRVTITCQASQSINDYLAWYQQKPGKAPKLLIYKASTLASGVPSRFSGSGSGTDFTLTISSLQPEDFATYYCQQGYIITDIDNVFGTGTKVTVLGGGGGSQVQLQESGPGLVKPSETLSLTCKVSGFSFSNSYWICWIRQPPGKGLEWIGCTFVGSSDSTYYANWAKGRVTISVDSSKNQFSLKLSSVTAADTAVYYCARHPSDAVYGYANNLWGQGTLVTVSSGGGGSGGGGSGGGGSGGGGSIQMTQSPSSLSASVGDRVTITCQASQSINNVLAWYQQKPGKAPKLLIYRASTLASGVPSRFSGSGSGTDFTLTISSLQPEDFATYYCQSSYGNYGDFGTGTKVTVLGGGGGSQVQLQESGPGLVKPSETLSLTCKVSGFSFSSGYDMCWIRQPPGKGLEWIGCVVAGSVDITYYASWAKGRVTISVDSSKNQFSLKLSSVTAADTAVYYCARKDAYSDAFNLWGQGTLVTVSSGGGGSGGGGSIQMTQSPSSLSASVGDRVTITCQSSESVYSNNQLSWYQQKPGQPPKLLIYDASDLASGVPSRFSGSGSGTDFTLTISSLQPEDFATYYCAGGFSSSSDTAFGGGTKLTVLGGGGGSGGGGSGGGGSGGGGSEVQLVESGGGLVQPGGSLRLSCAASGFSLSSNAMGWVRQAPGKGLEYIGIISVGGFTYYASWAKGRFTISRDNSKNTVYLQMNSLRAEDTATYFCARDRHGGDSSGAFYLWGQGTLVTVSS
notes: trispecific scDb-scFv anti-PDL1 x CD137 x HSA; also called PRO1051; 38-02-A04 sc01 scDb-i/33-03-G02 sc01 scDb-o/19-01-H04-sc03 scFv
In test [1], B2 registered a Kd of 0.0066 nM and a kon of 2e+06 M⁻¹ s⁻¹. In test [4], this molecule came in with an equilibrium dissociation constant (Kd) of 3 nM, a koff of 0.00062 s⁻¹ and a kon of 200000 M⁻¹ s⁻¹. For the same molecule, in test [5], the “IC50 (ng/ml), NF-AT potency assay, +HSA” value worked out at 275 ng/mL and the “rel. IC50 (avelumab/test), +HSA” value amounted to 0.25 fold. The “max. activation (%), NFkB reporter, CHO-PD-L1, 24 h, +HSA” value in test [9] turned out to be 369%. In addition, the binding result in test [16] was “no binding”. In addition, the koff in test [12] turned out to be 0.0003 s⁻¹.

Source of the values: patent publication US20230192897A1 (NUMAB THERAPEUTICS, published 2023).
